In the supplement of paper PMC10567573:

B1: RHOBTB2 (parent)
chain: HHHHGRDFLLRAASFDVCESVDEA
B2: PPEF2 (parent)
chain: FIPSSHNDRDFLTRIFTEDRFAQD

Variants of: B1
Assay: protein stability index of a GFP-peptide fusion (GPS, HEK-293T) (PSI 1-6); higher = more stable
Settings: c terminus: a fixed tail appended
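Further: lentivirally expressed fusions sorted by FACS into six bins by GFP to DsRed ratio, PSI derived from sequencing read proportions per bin multiplied by bin number.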

| Variant | protein stability index |
| --- | --- |
| HHHHGRDFLLRAASFDVCESVDLA | 2.02 |
| HHHHGRDFLLRAASFDVCESVDNA | 3.26 |
| HHHHGRDFLLRAASFDVCESVDSA | 3.25 |
| HHHHGRDFLLRAASFDVCESVDTA | 3.13 |
| HHHHGRDFLLRAASFDVCESVDIA | 2.92 |
| HHHHGRDFLLRAASFDVCESVDPA | 3.65 |
| HHHHGRDFLLRAASFDVCESVDMA | 3.34 |
| HHHHGRDFLLRAASFDVCESVDVA | 2.45 |
| HHHHGRDFLLRAASFDVCESVDQA | 3.66 |
| HHHHGRDFLLRAASFDVCESVDRA | 3.37 |
| HHHHGRDFLLRAASFDVCESVDYA | 2.83 |
| HHHHGRDFLLRAASFDVCESVDKA | 2.57 |
| HHHHGRDFLLRAASFDVCESVDWA | 2.52 |
| HHHHGRDFLLRAASFDVCESVDER | 3.75 |
| HHHHGRDFLLRAASFDVCESVDEG | 3.88 |
| HHHHGRDFLLRAASFDVCESVDEI | 3.17 |

| Variant | protein stability index |
| --- | --- |
| HHHHGRDFLLRAASFDVCESVDEN | 3.59 |
| HHHHGRDFLLRAASFDVCESVDET | 3.95 |
| HHHHGRDFLLRAASFDVCESVDED | 4.26 |
| HHHHGRDFLLRAASFDVCESVDEL | 3.75 |
| HHHHGRDFLLRAASFDVCESVDEQ | 3.86 |
| HHHHGRDFLLRAASFDVCESVDEC | 3.04 |
| HHHHGRDFLLRAASFDVCESVDEP | 3.56 |
| HHHHGRDFLLRAASFDVCESVDES | 3.82 |
| HHHHGRDFLLRAASFDVCESVDEM | 3.61 |
| HHHHGRDFLLRAASFDVCESVDEV | 3.27 |
| HHHHGRDFLLRAASFDVCESVDEW | 2.53 |
| HHHHGRDFLLRAASFDVCESVDEY | 3.29 |
| HHHHGRDFLLRAASFDVCESVDEH | 3.92 |
| HHHHGRDFLLRAASFDVCESVDEE | 4.15 |
| HHHHGRDFLLRAASFDVCESVDEK | 3.85 |
| HHHHGRDFLLRAASFDVCESVDEF | 2.65 |

Variants of: B2
Assay: as above
Settings: c terminus: a fixed tail appended

| Variant | protein stability index |
| --- | --- |
| FIPSSHNIRDFLTRIFTEDRFAQD | 1.68 |
| FIPSSHNNRDFLTRIFTEDRFAQD | 1.99 |
| FIPSSHNGRDFLTRIFTEDRFAQD | 2.51 |
| FIPSSHNCRDFLTRIFTEDRFAQD | 2.03 |
| FIPSSHNARDFLTRIFTEDRFAQD | 1.89 |
| FIPSSHNKRDFLTRIFTEDRFAQD | 1.53 |
| FIPSSHNVRDFLTRIFTEDRFAQD | 2.08 |
| FIPSSHNERDFLTRIFTEDRFAQD | 1.53 |
| FIPSSHNQRDFLTRIFTEDRFAQD | 2.15 |
| FIPSSHNPRDFLTRIFTEDRFAQD | 1.89 |
| FIPSSHNFRDFLTRIFTEDRFAQD | 2.38 |
| FIPSSHNYRDFLTRIFTEDRFAQD | 2.55 |
| FIPSSHNWRDFLTRIFTEDRFAQD | 2.16 |
| FIPSSHNTRDFLTRIFTEDRFAQD | 2.1 |
| FIPSSHNRRDFLTRIFTEDRFAQD | 2.25 |
| FIPSSHNSRDFLTRIFTEDRFAQD | 1.3 |
| FIPSSHNMRDFLTRIFTEDRFAQD | 1.93 |
| FIPSSHNHRDFLTRIFTEDRFAQD | 2.04 |
| FIPSSHNLRDFLTRIFTEDRFAQD | 1.52 |
| FIPDSHNDRDFLTRIFTEDRFAQD | 2.11 |
| FIPTSHNDRDFLTRIFTEDRFAQD | 2.57 |
| FIPPSHNDRDFLTRIFTEDRFAQD | 1.8 |
| FIPYSHNDRDFLTRIFTEDRFAQD | 1.94 |

| Variant | protein stability index |
| --- | --- |
| FIPFSHNDRDFLTRIFTEDRFAQD | 1.99 |
| FIPLSHNDRDFLTRIFTEDRFAQD | 2.02 |
| FIPKSHNDRDFLTRIFTEDRFAQD | 2.29 |
| FIPRSHNDRDFLTRIFTEDRFAQD | 2.14 |
| FIPISHNDRDFLTRIFTEDRFAQD | 3.25 |
| FIPNSHNDRDFLTRIFTEDRFAQD | 3.06 |
| FIPGSHNDRDFLTRIFTEDRFAQD | 2.53 |
| FIPWSHNDRDFLTRIFTEDRFAQD | 2.19 |
| FIPESHNDRDFLTRIFTEDRFAQD | 1.63 |
| FIPMSHNDRDFLTRIFTEDRFAQD | 1.31 |
| FIPVSHNDRDFLTRIFTEDRFAQD | 2.29 |
| FIPHSHNDRDFLTRIFTEDRFAQD | 1.76 |
| FIPCSHNDRDFLTRIFTEDRFAQD | 1.39 |
| FIPQSHNDRDFLTRIFTEDRFAQD | 1.89 |
| FIPASHNDRDFLTRIFTEDRFAQD | 2.19 |
| FIGSSHNDRDFLTRIFTEDRFAQD | 2.1 |
| FISSSHNDRDFLTRIFTEDRFAQD | 1.91 |
| FIISSHNDRDFLTRIFTEDRFAQD | 2.19 |
| FIQSSHNDRDFLTRIFTEDRFAQD | 1.92 |
| FIVSSHNDRDFLTRIFTEDRFAQD | 1.97 |
| FICSSHNDRDFLTRIFTEDRFAQD | 1.3 |
| FIHSSHNDRDFLTRIFTEDRFAQD | 2.35 |
| FILSSHNDRDFLTRIFTEDRFAQD | 1.92 |

| Variant | protein stability index |
| --- | --- |
| FIRSSHNDRDFLTRIFTEDRFAQD | 1.72 |
| FITSSHNDRDFLTRIFTEDRFAQD | 1.99 |
| FIMSSHNDRDFLTRIFTEDRFAQD | 1.34 |
| FIWSSHNDRDFLTRIFTEDRFAQD | 2.3 |
| FIDSSHNDRDFLTRIFTEDRFAQD | 2.75 |
| FIFSSHNDRDFLTRIFTEDRFAQD | 1.79 |
| FINSSHNDRDFLTRIFTEDRFAQD | 2.25 |
| FIESSHNDRDFLTRIFTEDRFAQD | 2.82 |
| FIYSSHNDRDFLTRIFTEDRFAQD | 1.84 |
| FIKSSHNDRDFLTRIFTEDRFAQD | 1.25 |
| FIASSHNDRDFLTRIFTEDRFAQD | 2.23 |
| FIPSQHNDRDFLTRIFTEDRFAQD | 2.55 |
| FIPSHHNDRDFLTRIFTEDRFAQD | 1.89 |
| FIPSTHNDRDFLTRIFTEDRFAQD | 2.17 |
| FIPSGHNDRDFLTRIFTEDRFAQD | 1.74 |
| FIPSAHNDRDFLTRIFTEDRFAQD | 2.53 |
| FIPSYHNDRDFLTRIFTEDRFAQD | 1.97 |
| FIPSNHNDRDFLTRIFTEDRFAQD | 1.92 |
| FIPSEHNDRDFLTRIFTEDRFAQD | 2.4 |
| FIPSVHNDRDFLTRIFTEDRFAQD | 2.09 |
| FIPSLHNDRDFLTRIFTEDRFAQD | 1.41 |
| FIPSKHNDRDFLTRIFTEDRFAQD | 1.67 |
| FIPSPHNDRDFLTRIFTEDRFAQD | 2.29 |

| Variant | protein stability index |
| --- | --- |
| FIPSDHNDRDFLTRIFTEDRFAQD | 2.67 |
| FIPSIHNDRDFLTRIFTEDRFAQD | 2.04 |
| FIPSFHNDRDFLTRIFTEDRFAQD | 1.55 |
| FIPSMHNDRDFLTRIFTEDRFAQD | 1.44 |
| FIPSRHNDRDFLTRIFTEDRFAQD | 2.03 |
| FIPSCHNDRDFLTRIFTEDRFAQD | 1.9 |
| FIPSWHNDRDFLTRIFTEDRFAQD | 1.58 |
| FIPSSPNDRDFLTRIFTEDRFAQD | 1.49 |
| FIPSSTNDRDFLTRIFTEDRFAQD | 1.38 |
| FIPSSMNDRDFLTRIFTEDRFAQD | 1.09 |
| FIPSSWNDRDFLTRIFTEDRFAQD | 1.71 |
| FIPSSYNDRDFLTRIFTEDRFAQD | 2.21 |
| FIPSSNNDRDFLTRIFTEDRFAQD | 1.47 |
| FIPSSENDRDFLTRIFTEDRFAQD | 1.99 |
| FIPSSDNDRDFLTRIFTEDRFAQD | 2.56 |
| FIPSSINDRDFLTRIFTEDRFAQD | 2.44 |
| FIPSSVNDRDFLTRIFTEDRFAQD | 1.5 |
| FIPSSLNDRDFLTRIFTEDRFAQD | 2.23 |
| FIPSSANDRDFLTRIFTEDRFAQD | 1.71 |
| FIPSSQNDRDFLTRIFTEDRFAQD | 1.73 |
| FIPSSSNDRDFLTRIFTEDRFAQD | 1.91 |
| FIPSSFNDRDFLTRIFTEDRFAQD | 1.21 |
| FIPSSRNDRDFLTRIFTEDRFAQD | 1.68 |

| Variant | protein stability index |
| --- | --- |
| FIPSSKNDRDFLTRIFTEDRFAQD | 2.23 |
| FIPSSGNDRDFLTRIFTEDRFAQD | 2.07 |
| FIPSSCNDRDFLTRIFTEDRFAQD | 1.61 |
| VIPSSHNDRDFLTRIFTEDRFAQD | 3.88 |
| HIPSSHNDRDFLTRIFTEDRFAQD | 4.22 |
| PIPSSHNDRDFLTRIFTEDRFAQD | 4.18 |
| RIPSSHNDRDFLTRIFTEDRFAQD | 3.75 |
| GIPSSHNDRDFLTRIFTEDRFAQD | 4.38 |
| YIPSSHNDRDFLTRIFTEDRFAQD | 1.63 |
| KIPSSHNDRDFLTRIFTEDRFAQD | 3.85 |
| QIPSSHNDRDFLTRIFTEDRFAQD | 4.19 |
| IIPSSHNDRDFLTRIFTEDRFAQD | 3.54 |
| TIPSSHNDRDFLTRIFTEDRFAQD | 4.21 |
| SIPSSHNDRDFLTRIFTEDRFAQD | 4.4 |
| AIPSSHNDRDFLTRIFTEDRFAQD | 4.31 |
| NIPSSHNDRDFLTRIFTEDRFAQD | 4.05 |
| DIPSSHNDRDFLTRIFTEDRFAQD | 3.89 |
| CIPSSHNDRDFLTRIFTEDRFAQD | 4.21 |
| EIPSSHNDRDFLTRIFTEDRFAQD | 4.06 |
| MIPSSHNDRDFLTRIFTEDRFAQD | 4.06 |
| LIPSSHNDRDFLTRIFTEDRFAQD | 3.73 |
| WIPSSHNDRDFLTRIFTEDRFAQD | 3.04 |
| FMPSSHNDRDFLTRIFTEDRFAQD | 2.07 |

| Variant | protein stability index |
| --- | --- |
| FAPSSHNDRDFLTRIFTEDRFAQD | 3.29 |
| FQPSSHNDRDFLTRIFTEDRFAQD | 1.5 |
| FFPSSHNDRDFLTRIFTEDRFAQD | 3.32 |
| FHPSSHNDRDFLTRIFTEDRFAQD | 2.06 |
| FTPSSHNDRDFLTRIFTEDRFAQD | 3.63 |
| FWPSSHNDRDFLTRIFTEDRFAQD | 2.23 |
| FDPSSHNDRDFLTRIFTEDRFAQD | 4.44 |
| FEPSSHNDRDFLTRIFTEDRFAQD | 3.85 |
| FSPSSHNDRDFLTRIFTEDRFAQD | 2.2 |
| FVPSSHNDRDFLTRIFTEDRFAQD | 2.73 |
| FLPSSHNDRDFLTRIFTEDRFAQD | 2.96 |
| FGPSSHNDRDFLTRIFTEDRFAQD | 2.62 |
| FCPSSHNDRDFLTRIFTEDRFAQD | 1.46 |
| FYPSSHNDRDFLTRIFTEDRFAQD | 3.38 |
| FKPSSHNDRDFLTRIFTEDRFAQD | 2.92 |
| FRPSSHNDRDFLTRIFTEDRFAQD | 3.12 |
| FNPSSHNDRDFLTRIFTEDRFAQD | 1.96 |
| FPPSSHNDRDFLTRIFTEDRFAQD | 1.78 |
| FIPSSHDDRDFLTRIFTEDRFAQD | 1.56 |
| FIPSSHTDRDFLTRIFTEDRFAQD | 2.17 |
| FIPSSHEDRDFLTRIFTEDRFAQD | 2.39 |
| FIPSSHCDRDFLTRIFTEDRFAQD | 2.17 |
| FIPSSHQDRDFLTRIFTEDRFAQD | 2.46 |

| Variant | protein stability index |
| --- | --- |
| FIPSSHWDRDFLTRIFTEDRFAQD | 1.6 |
| FIPSSHFDRDFLTRIFTEDRFAQD | 1.89 |
| FIPSSHLDRDFLTRIFTEDRFAQD | 1.97 |
| FIPSSHKDRDFLTRIFTEDRFAQD | 2.99 |
| FIPSSHYDRDFLTRIFTEDRFAQD | 2.95 |
| FIPSSHMDRDFLTRIFTEDRFAQD | 2.22 |
| FIPSSHADRDFLTRIFTEDRFAQD | 1.65 |
| FIPSSHSDRDFLTRIFTEDRFAQD | 1.73 |
| FIPSSHGDRDFLTRIFTEDRFAQD | 2.01 |
| FIPSSHPDRDFLTRIFTEDRFAQD | 1.92 |
| FIPSSHRDRDFLTRIFTEDRFAQD | 2.33 |
| FIPSSHHDRDFLTRIFTEDRFAQD | 3.59 |
| FIPSSHIDRDFLTRIFTEDRFAQD | 2.11 |
| FIPSSHVDRDFLTRIFTEDRFAQD | 1.8 |
| FIPSSHNDADFLTRIFTEDRFAQD | 2.23 |
| FIPSSHNDDDFLTRIFTEDRFAQD | 2.18 |
| FIPSSHNDEDFLTRIFTEDRFAQD | 1.89 |
| FIPSSHNDCDFLTRIFTEDRFAQD | 2.23 |
